According to article PMC5717070:

Target: Solanum tuberosum aspartic protease plant-specific insert (saposin-like domain), recombinant (Solanum tuberosum)
Experiment: AUC; sedimentation equilibrium, 26-28 uM PSI, 27 mM sodium phosphate pH 3.0, 140 mM NaCl, 20 °C, single ideal species model; monomer to dimer

Solanum tuberosum aspartic protease plant-specific insert (saposin-like domain), recombinant (domain or fragment)
stoichiometry N: 2
